This note sets out measurements from patent US20240327530A1 (ICHNOS SCIENCES, published 2024).

For experiment [1], the target named is T1, Cynomolgus IL-1RAP on normal cynomolgus dermal fibroblasts (cynomolgus monkey, UniProt P59822 21-570 (rhesus entry)).
T1 construct: Endogenous protein on cells; also called Cyno IL-1RAP
T1 sequence: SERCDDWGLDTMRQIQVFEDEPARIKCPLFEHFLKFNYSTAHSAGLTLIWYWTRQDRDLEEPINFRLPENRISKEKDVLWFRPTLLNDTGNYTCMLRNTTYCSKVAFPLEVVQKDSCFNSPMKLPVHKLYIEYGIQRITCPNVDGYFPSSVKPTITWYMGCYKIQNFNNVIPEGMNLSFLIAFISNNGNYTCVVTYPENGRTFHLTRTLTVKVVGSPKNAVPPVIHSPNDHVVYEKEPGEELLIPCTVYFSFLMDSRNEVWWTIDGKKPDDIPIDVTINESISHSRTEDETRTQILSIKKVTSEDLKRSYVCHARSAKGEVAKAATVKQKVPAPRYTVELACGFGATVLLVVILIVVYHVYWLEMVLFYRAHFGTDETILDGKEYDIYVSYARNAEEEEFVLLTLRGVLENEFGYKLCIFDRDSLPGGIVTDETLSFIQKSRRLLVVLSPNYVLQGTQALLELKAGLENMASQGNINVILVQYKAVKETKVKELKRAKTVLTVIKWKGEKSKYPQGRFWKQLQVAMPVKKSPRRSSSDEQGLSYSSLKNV
The experiment in a line: flow cytometry on normal cynomolgus fibroblasts, nonlinear sigmoidal regression. As for the experimental part:
Bound antibodies were detected with a monoclonal anti-human IgG PE-Cyanine7 secondary antibody. The graphs show the nonlinear sigmoidal regression binding curves (Relative Geometric Mean Fluorescence Intensity) for each cell lines. Each data point is a measurement for a given cell line. Multiple independent experiments were performed across several donors (HaCaT and HaCaT IL-1RAP KO: 4 and 3 independent experiments; Human Dermal Fibroblasts: 2 independent experiments—total of 5 donors; Human Neutrophil: 2 experiments—total of 6 donors; Cyno Dermal Fibroblasts: 2 independent experiment—total of 4 donors).
In brief, cells were harvested, counted, and plated at 50,000 cells/well in a 96-well round-bottom plate. The plate was centrifuged at 350 g for 3 minutes and the cells were resuspended in 50 μl of FACS® buffer (PBS (1×)+2.5% FCS+2 mM EDTA+0.05% NaN₃) containing various concentrations (ranging from 50 to 0.00003 μg/ml) of either anti-human IL-1RAP_candidate_1 or Isotype control_5 antibodies. […] The cells were gated based on size on FSC vs SSC and analyzed for PE-Cyanine7-geometric mean (geomean) fluorescence intensity using FLOWJO® software. Finally, relative geomean fluorescence intensity was calculated by subtracting fluorescence of anti-human IL-1RAP_candidate_1 per fluorescence of Isotype control_5. […]
(A flow cytometer gives signals particle by particle.)

Experiment [2] deals with T2, Recombinant human IL-1RAP-ECD(S21-E359)-avi-his protein (human, UniProt Q9NPH3 21-359).
T2 construct: Biotinylated where loaded on streptavidin; also called human IL-1RAP-ECD-Avi-His; recombinant human IL-1RAP-avi-his protein
T2 sequence: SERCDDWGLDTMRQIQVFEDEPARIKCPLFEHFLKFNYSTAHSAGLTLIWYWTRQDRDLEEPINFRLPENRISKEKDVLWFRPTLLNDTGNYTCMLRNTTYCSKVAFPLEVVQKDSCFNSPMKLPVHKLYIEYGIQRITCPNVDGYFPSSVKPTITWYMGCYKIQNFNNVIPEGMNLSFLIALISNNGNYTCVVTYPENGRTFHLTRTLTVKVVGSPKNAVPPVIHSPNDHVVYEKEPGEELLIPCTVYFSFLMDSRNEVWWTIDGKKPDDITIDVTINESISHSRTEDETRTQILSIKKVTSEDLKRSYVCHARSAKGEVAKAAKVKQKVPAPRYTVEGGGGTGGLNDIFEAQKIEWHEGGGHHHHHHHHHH
The experiment in a line: SPR, IgG1 LALA captured on anti-human IgG Fc CM5 chip, human IL-1RAP-avi-his as analyte in a concentration series, 1:1 fit, one representative replicate. As for the experimental part: Anti-IL-1RAP-C8-RecC-ES IgG1 LALA was immobilized on a Series S CM5 sensor CHIP coupled with anti-human IgG Fc. Human IL-1RAP-avi-his or cynomolgus monkey IL-1RAP-avi-his was injected over immobilized IgG1 LALA in concentration series in HBS-EP+ buffer. One representative replicate for human IL-1RAP and cynomolgus monkey IL-1RAP is presented. Plots are showing data expressed as number of resonance units (abbreviated RU; Y axis) vs. time (s, X axis). Dotted lines represent the measured data while solid lines represent simulated fits. KD: equilibrium dissociation constant; Ka: association constant; Kd: dissociation constant.
Surface plasmon resonance (SPR) was used to measure the binding affinities of the human IgG1 LALA molecules for human and cynomolgus monkey IL-1RAP. Affinities were measured on a BIACORE™ T200 instrument (BIACORE™, GE […]®) at 25° C. and analyzed with the BIACORE™ T200 Evaluation Software (v3.1). Measurements were performed on Series S CM5 sensor chips (BIACORE™ T200, BIACORE™, GE […]®, catalog no. BR100530) coupled with anti-human IgG Fc (BIACORE™, GE […]®, catalog no. BR100839) using a commercial amine coupling kit (BIACORE™, GE […]®, catalog no. BR100050). SPR measurements were performed with recombinant human IL-1RAP-avi-his protein produced in house (SEQ ID NO. 1) or recombinant cynomolgus monkey IL-1RAP-avi-his protein produced in house (SEQ ID NO. 2). The affinities to human and cynomolgus monkey IL-1RAP were assessed by immobilizing anti-IL-1RAP IgG1 LALA molecules and using IL-1RAP proteins as analyte. Around 150 RU of human IgG1 LALA were captured on fc2 of a Series S CM5 sensor chip coupled with anti-human IgG Fc. Recombinant human IL-1RAP-avi-his protein or recombinant cynomolgus monkey IL-1RAP-avi-his protein was injected in multi cycle kinetic at different concentrations ranging from 0.14 to 100 nM, in HBS-EP+ buffer (BIACORE™, GE […]®, catalog no. BR100669) at a flow rate of 30 μl/min for 3 min on fc1 and fc2 (fc1 being used as reference). Dissociation was monitored for 12 min.

B1: Anti-IL-1RAP-C8-RecC-ES-IgG1LALA (antibody, V domains shown)
VH: QVQLVQSGAEVKKPGSSVKVSCKASGSPAEPYAIQWVRQAPGQGLEWMGYIIPSLGGYDYAQKFQGRVTITADESTSTAYMELSSLRSEDTAVYYCARGQTLYESGRQFDIWGQGTLVTVSS
VL: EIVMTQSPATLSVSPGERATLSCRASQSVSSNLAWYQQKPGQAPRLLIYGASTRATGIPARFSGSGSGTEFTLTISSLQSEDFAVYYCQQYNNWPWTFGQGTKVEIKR
notes: also called ISB 880-C8-recC-ES
Usually Kd stands for the equilibrium constant for the complex coming apart. The term koff denotes a measure of how fast the partners let go of each other. In general, kon refers to the second-order rate constant of association. For B1, the Kd in experiment [1] came out at 1.55 nM. Also, in experiment [2], the Kd stood at 0.267 nM, the dissociation rate constant (koff) worked out at 0.000169 s⁻¹ and the kon is 633000 M⁻¹ s⁻¹.
